Results: patent US20240415888A1 (Memorial Sloan Kettering, published 2024)

Target: T1, human Thyroid Stimulating Hormone Receptor (TSHR), expressed on transfected or transduced cells (human, UniProt P16473 21-764)
T1 construct: also called Hu-TSHR; human TSHR
Test: flow cytometry on HEK-293T cells transfected with TSHR expression vectors
Description: Flow Cytometry. Flow cytometry was performed to assess specific binding of TSHR and HER2 bispecific antibodies or to quantify their membrane expression. […] For flow analysis cells were harvested using 0.02% EDTA in phosphate-buffered saline (PBS). […] After washing, cells were captured using a BD LSRFortessa (BD Biosciences). Cells stained with DAPI (1 μg/mL) were excluded. Cytometric analysis was performed using FlowJo (V10.6; FlowJo) to obtain median fluorescence intensity (MFI) or to quantify molecules per cell using QuantiBRITE PE reference beads (BD Biosciences).

binding result | Binder
binds | K1-70/CD3 T-BsAb (anti-TSHR x anti-CD3 bispecific antibody, IgG-[L]-scFv 2+2 format) (bispecific antibody, also called K1-70/CD3 BsAb; K1-70-TSHR/CD3) light: QSVLTQPPSVSAAPGQKVTISCSGSSSDIGSNYVSWYQQFPGTAPKLLIYDNNKRPSAIPDRFSGSKSGTSATLGITGLQTGDEADYYCGTWDSRLGIAVFGGGTQLTVLGQPKAAPSVTLFPPSSEELQANKATLVCLISDFYPGAVTVAWKADSSPVKAGVETTTPSKQSNNKYAASSYLSLTPEQWKSHRSYSCQVTHEGSTVEKTVAPTECTSGGGGSGGGGSGGGGSQVQLVQSGGGVVQPGRSLRLSCKASGYTFTRYTMHWVRQAPGKCLEWIGYINPSRGYTNYNQKFKDRFTISRDNSKNTAFLQMDSLRPEDTGVYFCARYYDDHYSLDYWGQGTPVTVSSGGGGSGGGGSGGGGSGGGGSGGGGSGGGGSDIQMTQSPSSLSASVGDRVTITCSASSSVSYMNWYQQTPGKAPKRWIYDTSKLASGVPSRFSGSGSGTDYTFTISSLQPEDIATYYCQQWSSNPFTFGCGTKLQITR heavy: not shown
binds | M22/CD3 T-BsAb (anti-TSHR x anti-CD3 bispecific antibody, IgG-[L]-scFv 2+2 format) (bispecific antibody, Expressed in Expi-CHO cells and purified on protein A; also called M22/CD3 BsAb; M22-TSHR/CD3) light: LTVLTQPPSVSGAPRQRVTISCSGNSSNIGNNAVNWYQQLPGKAPKLLIYYDDQLPSGVSDRFSGSRSGTSASLAIRGLQSEDEADYYCTSWDDSLDSQLFGGGTRLTVLGQPKAAPSVTLFPPSSEELQANKATLVCLISDFYPGAVTVAWKADSSPVKAGVETTTPSKQSNNKYAASSYLSLTPEQWKSHRSYSCQVTHEGSTVEKTVAPTECTSGGGGSGGGGSGGGGSQVQLVQSGGGVVQPGRSLRLSCKASGYTFTRYTMHWVRQAPGKCLEWIGYINPSRGYTNYNQKFKDRFTISRDNSKNTAFLQMDSLRPEDTGVYFCARYYDDHYSLDYWGQGTPVTVSSGGGGSGGGGSGGGGSGGGGSGGGGSGGGGSDIQMTQSPSSLSASVGDRVTITCSASSSVSYMNWYQQTPGKAPKRWIYDTSKLASGVPSRFSGSGSGTDYTFTISSLQPEDIATYYCQQWSSNPFTFGCGTKLQITR heavy: not shown
